Earlier results, collected in patent US20160114005A1, “HYBRID PROTEIN THAT CONVERTS ARACHIDONIC ACID INTO PROSTACYCLIN” (UNIVERSITY OF HOUSTON SYSTEM, priority 2006, published 2016).
“And” between values parts separate entries of the source, which are not always exact repeats. Equal entries are not always repeated. Where two headings read alike, the source gives them in different places.

B1: PGIS: Individual prostacyclin synthase enzyme (protein, UniProt Q16647 1-500, looked up)
Prostacyclin synthase: MAWAALLGLLAALLLLLLLSRRRTRRPGEPPLDLGSIPWLGYALDFGKDAASFLTRMKEKHGDIFTILVGGRYVTVLLDPHSYDAVVWEPRTRLDFHAYAIFLMERIFDVQLPHYSPSDEKARMKLTLLHRELQALTEAMYTNLHAVLLGDATEAGSGWHEMGLLDFSYSFLLRAGYLTLYGIEALPRTHESQAQDRVHSADVFHTFRQLDRLLPKLARGSLSVGDKDHMCSVKSRLWKLLSPARLARRAHRSKWLESYLLHLEEMGVSEEMQARALVLQLWATQGNMGPAAFWLLLFLLKNPEALAAVRGELESILWQAEQPVSQTTTLPQKVLDSTPVLDSVLSESLRLTAAPFITREVVVDLAMPMADGREFNLRRGDRLLLFPFLSPQRDPEIYTDPEVFKYNRFLNPDGSEKKDFYKDGKRLKNYNMPWGAGHNHCLGRSYAVNSIKQFVFLVLVHLDLELINADVEIPEFDLSRYGFGLMQPEHDVPVRYRIRP

Row | Molecule | Km (individual COX2, previously characterized by several groups) | Km (individual PGIS, previously characterized by several groups)
1 | COX2: Individual cyclooxygenase isoform-2 enzyme [reference compound] | 6.5 µM and 0.9 µM | 
2 | B1 |  | 13.3 µM and 30 µM and 9.5 µM
